One molecule from US20060223099A1 (BAYLOR COLLEGE OF MEDICINE, published 2006) can be followed below.

This test concerns the target T1, SV40 large T-antigen (SV40, UniProt P03070 87-708).
T1 construct: Control partner in the yeast-two-hybrid assay; fusion construct not described
Put plainly: targeted yeast-two-hybrid, negative control.

T1 sequence (P03070 87-708 limits assumed): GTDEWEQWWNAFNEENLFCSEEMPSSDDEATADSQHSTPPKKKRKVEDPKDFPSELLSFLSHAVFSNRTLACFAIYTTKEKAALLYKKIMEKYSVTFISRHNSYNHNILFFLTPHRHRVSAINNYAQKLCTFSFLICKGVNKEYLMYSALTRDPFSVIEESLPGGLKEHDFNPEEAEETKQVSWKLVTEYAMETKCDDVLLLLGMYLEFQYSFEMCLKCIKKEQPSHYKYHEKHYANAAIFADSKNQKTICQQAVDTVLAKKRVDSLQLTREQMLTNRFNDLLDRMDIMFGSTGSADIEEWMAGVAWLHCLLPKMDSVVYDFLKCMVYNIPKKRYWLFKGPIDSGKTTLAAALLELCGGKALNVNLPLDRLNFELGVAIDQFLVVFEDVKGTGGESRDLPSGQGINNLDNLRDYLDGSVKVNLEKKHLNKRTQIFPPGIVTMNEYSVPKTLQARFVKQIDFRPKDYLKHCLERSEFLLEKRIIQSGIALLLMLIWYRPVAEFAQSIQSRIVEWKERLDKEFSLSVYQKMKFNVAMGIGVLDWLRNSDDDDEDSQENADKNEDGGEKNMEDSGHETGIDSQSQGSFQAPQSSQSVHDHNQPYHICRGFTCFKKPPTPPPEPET

B1: human Lamin C (other)
chain: SEEVVSREVSGIKAAYEAELGDARKTLDSVAKERARLQLELSKVREEFKELKARNTKKEGDLIAAQARLKDLEALLNSKEAALSTALSEKRTLEGELHDLRGQVAKLEAALGEAKKQLQDEMLRRVDAENRLQTMKEELDFQKNIYSEELRETKRRHETRLVEID
notes: Negative-control partner in the yeast-two-hybrid assay; fusion construct not described
As to B1, the binding result is given as “no binding”.
